In patent US20060035359A1 (BURNHAM INSTITUTE, published 2006):
Each block holds one molecule with its values, some of them ahead of it.

Key:
[1] = target: His-CKS1 (UniProt P61024)
[2] = target: T1, fusion protein of the B42 trans-activation domain fused to pro-caspase-9 (UniProt P55211 1-416); assay: yeast two-hybrid, LEU2 growth and beta-galactosidase filter assay
T1 sequence (looked up): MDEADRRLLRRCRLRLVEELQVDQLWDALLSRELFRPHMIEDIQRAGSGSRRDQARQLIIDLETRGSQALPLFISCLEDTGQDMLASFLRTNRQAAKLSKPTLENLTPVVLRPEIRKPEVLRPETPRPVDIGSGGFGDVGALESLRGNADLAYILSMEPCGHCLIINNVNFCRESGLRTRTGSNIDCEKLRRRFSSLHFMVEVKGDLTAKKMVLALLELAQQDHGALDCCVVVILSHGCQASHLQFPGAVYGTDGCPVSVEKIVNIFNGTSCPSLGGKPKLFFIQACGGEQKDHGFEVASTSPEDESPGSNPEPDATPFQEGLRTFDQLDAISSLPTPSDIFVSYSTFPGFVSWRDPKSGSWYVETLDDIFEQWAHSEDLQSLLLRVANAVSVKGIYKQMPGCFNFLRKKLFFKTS
Protocol: (§1) A plasmid (1 μg DNA) encoding a fusion protein of the LexA DNA-binding domain appended to the N-terminus of SBP1 was co-transformed into yeast strain EGY48 with […] of pJG4-5 plasmid encoding fusion proteins of the B42 trans-activation domain fused to Survivin, Survivin T34E, Bcl-2, pro-caspase-9, XIAP, Bax, or Apaf-1. Bcl-2, pro-caspase-9, XIAP, Bax, and Apaf-1 are other […]. […] Only the Survivin T34E scored positive for leucine and β-galactosidase activity, wild type Survivin, Bcl-2, caspase-9, XIAP, Bax and Apaf-1 scored negative under the conditions.

[3] = target: T2, fusion protein of the B42 trans-activation domain fused to Apaf-1 (UniProt O14727 1-1248); assay: as above
T2 sequence (looked up): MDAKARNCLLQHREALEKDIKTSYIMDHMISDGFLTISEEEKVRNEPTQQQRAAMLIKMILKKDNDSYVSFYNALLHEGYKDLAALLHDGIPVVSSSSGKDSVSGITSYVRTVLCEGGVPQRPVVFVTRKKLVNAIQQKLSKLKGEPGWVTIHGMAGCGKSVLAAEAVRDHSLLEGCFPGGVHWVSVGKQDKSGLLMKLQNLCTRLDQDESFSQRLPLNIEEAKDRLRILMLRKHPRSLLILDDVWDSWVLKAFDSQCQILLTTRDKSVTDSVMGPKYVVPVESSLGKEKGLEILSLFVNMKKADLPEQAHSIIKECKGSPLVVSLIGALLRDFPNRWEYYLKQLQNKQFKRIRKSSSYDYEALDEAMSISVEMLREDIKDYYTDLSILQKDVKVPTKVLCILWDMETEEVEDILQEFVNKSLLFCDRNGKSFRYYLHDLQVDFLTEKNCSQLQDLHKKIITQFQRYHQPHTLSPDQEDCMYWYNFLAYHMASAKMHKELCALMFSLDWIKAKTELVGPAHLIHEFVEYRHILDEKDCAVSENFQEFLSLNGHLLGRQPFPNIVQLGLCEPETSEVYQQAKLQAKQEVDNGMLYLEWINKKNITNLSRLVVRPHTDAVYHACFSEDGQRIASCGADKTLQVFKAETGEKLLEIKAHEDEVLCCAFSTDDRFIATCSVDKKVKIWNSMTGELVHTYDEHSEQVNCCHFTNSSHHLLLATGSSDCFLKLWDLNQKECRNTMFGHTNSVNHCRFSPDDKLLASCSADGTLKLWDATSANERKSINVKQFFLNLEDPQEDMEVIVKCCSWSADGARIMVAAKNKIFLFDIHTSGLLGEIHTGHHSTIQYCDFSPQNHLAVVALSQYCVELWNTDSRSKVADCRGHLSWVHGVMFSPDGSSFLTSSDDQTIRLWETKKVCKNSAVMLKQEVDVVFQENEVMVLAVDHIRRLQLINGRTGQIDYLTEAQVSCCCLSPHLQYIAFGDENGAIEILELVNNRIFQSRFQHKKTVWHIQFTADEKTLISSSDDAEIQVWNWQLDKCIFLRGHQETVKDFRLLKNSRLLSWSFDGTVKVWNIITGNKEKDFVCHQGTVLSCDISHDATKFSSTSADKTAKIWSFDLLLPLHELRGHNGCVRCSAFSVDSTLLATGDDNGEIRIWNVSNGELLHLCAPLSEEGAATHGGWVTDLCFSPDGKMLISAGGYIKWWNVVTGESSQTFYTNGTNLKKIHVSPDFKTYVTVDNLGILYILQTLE
Protocol: as §1

[4] = target: fusion protein of the B42 trans-activation domain fused to XIAP (UniProt P98170 1-497); assay: as above
Protocol: as §1

[5] = target: T3, 35S-labeled in vitro translated (IVT) SBP1 protein (human, UniProt Q8N5L8 1-163, 35S label); assay: GST pull-down of 35S-labeled IVT SBP1, SDS-PAGE and fluorography
T3 construct: Translated in reticulocyte lysate from the full-length SBP1 cDNA; The two differ only at the C-terminal residues; also called full-length SBP1; human SBP1
T3 sequence: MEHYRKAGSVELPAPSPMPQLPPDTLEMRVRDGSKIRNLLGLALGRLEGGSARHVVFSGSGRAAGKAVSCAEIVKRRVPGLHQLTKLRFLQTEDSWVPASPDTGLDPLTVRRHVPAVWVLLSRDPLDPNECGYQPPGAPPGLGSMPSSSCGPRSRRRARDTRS
Protocol: cDNAs encoding wild type Survivin or Survivin T34E was cloned into the EcoRI and XhoI sites of pGEX-4T-1 (Amersham-Pharmacia, Sweden), expressed in XL-1-blue cells (Stratagene, Inc., La Jolla, Calif.), and affinity-purified using glutathione-Sepharose, using methods essentially as described in (Xie et al., 1998, Biochemistry, 37:6410-6418). A GST-CD40 fusion protein was included as a negative control. Purified GST-fusion proteins (0.5-1.0 μg immobilized on 10-20 μl of glutathione beads) and 2.5 μl of […] reticulocyte lysates (TNT-Lysates; Promega, Inc., Madison, Wis.) containing ³⁵S-labeled in vitro translated (IVT) SBP1 protein were incubated in […] of HKMEN (10 mM HEPES [pH 7.2], 142 mM KCl, 5 mM MgCl₂, 2 mM EGTA, 0.1% NP-40) at 4° C. for 30 minutes. The beads were washed 3× with 1 ml HKMEN solution to remove unbound ³⁵S-labeled IVT SBP1 protein, followed by boiling in 25 μl of Laemmli-SDS sample buffer to release and denature SBP1 bound to the matrix-bound GST-fusion protein. The eluted proteins were analyzed by SDS-PAGE (12%) and detected by fluorography.

Chain of His-CKS1 (P61024 whole entry, looked up, the tested form may be a part): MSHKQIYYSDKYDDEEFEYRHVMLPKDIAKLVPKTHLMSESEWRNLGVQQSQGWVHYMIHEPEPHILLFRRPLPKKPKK
Chain of fusion protein of the B42 trans-activation domain fused to XIAP (P98170 whole entry, the tested form may be a part): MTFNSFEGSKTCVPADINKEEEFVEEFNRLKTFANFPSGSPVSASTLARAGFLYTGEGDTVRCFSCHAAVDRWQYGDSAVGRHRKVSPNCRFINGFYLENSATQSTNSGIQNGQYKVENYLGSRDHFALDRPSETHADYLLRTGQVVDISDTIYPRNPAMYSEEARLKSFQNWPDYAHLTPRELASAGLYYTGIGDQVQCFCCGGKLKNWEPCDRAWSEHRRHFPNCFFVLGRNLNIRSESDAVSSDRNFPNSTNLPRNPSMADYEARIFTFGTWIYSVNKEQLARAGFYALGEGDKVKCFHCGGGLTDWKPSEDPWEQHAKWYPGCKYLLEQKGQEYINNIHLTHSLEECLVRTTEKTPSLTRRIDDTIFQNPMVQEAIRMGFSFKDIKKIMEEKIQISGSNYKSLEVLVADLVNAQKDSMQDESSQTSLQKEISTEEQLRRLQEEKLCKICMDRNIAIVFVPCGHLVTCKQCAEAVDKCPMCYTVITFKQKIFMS

Molecule: immunoprecipitated cyclin B1/cdc2
histone H1 phosphorylation [1]: is phosphorylated in the added presence of His-Cks 1

binding result [2]: no binding
binding result [3]: no binding
binding result [4]: no binding
B1: fusion protein of the LexA DNA-binding domain appended to the N-terminus of SBP1 (other)
chain: MKALTARQQEVFDLIRDHISQTGMPPTRAEIAQRLGFRSPNAAEEHLKALARKGVIEIVSGASRGIRLLQEEEEGLPLVGRVAAGEPLLAQQHIEGHYQVDPSLFKPNADFLLRVSGMSMKDIGIMDGDLLAVHKTQDVRNGQVVVARIDDEVTVKRLKKQGNKVELLPENSEFKPIVVDLRQQSFTIEGLAVGVIRNGDWLMEHYRKAGSVELPAPSPMPQLPPDTLEMRVRDGSKIRNLLGLALGRLEGGSARHVVFSGSGRAAGKAVSCAEIVKRRVPGLHQLTKLRFLQTEDSWVPASPDTGLDPLTVRRHVPAVWVLLSRDPLDPNECGYQPPGAPPGLGSMPSSSCGPRSRRRARDTRS
notes: Yeast two-hybrid construct expressed in yeast strain EGY48

binding result [5]: no binding
B2: GST-CD40 cytosolic domain protein (other, UniProt P25942 216-277, looked up)
chain: KKVAKKPTNKAPHPKQEPQEINFPDDLPGSNTAAPVQETLHGCQPVTQEDGKESRISVQERQ
notes: domain: cytosolic domain; Negative control; also called GST-CD40 fusion protein; not shown: glutathione S-transferase (GST) fusion partner
